Reference: publication PMC4175327

Molecular target: human beta2-microglobulin (hβ2m), monomer (human) (UniProt P61769)
Assay: SPR
Conditions: 2'-fluoro C and U; 50 mM MES, 120 mM NaCl, pH 6.2; fluorescence and NMR at 25 °C (NMR plus 0.02% azide, 0.1 mM EDTA, 10% D2O); SPR temperature not stated

Chain of human beta2-microglobulin (hβ2m), monomer (human) (P61769 21-119): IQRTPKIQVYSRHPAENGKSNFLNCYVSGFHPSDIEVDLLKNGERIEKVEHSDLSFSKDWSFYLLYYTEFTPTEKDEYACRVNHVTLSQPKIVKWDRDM

“GGGAAUGGAUCCACAUCUACGAAUUCUGAGCUACUCCCUUUUGGGCCCGGCUAUGAUUCACUGCAGACUUGACGAAGCUU [2'F B6 (full-length aptamer, 110 nt)]” was tested. Which Kd did it give?
The Kd was 500 nM.
